The target in assay [1] is T1, Human TfR1 protein (R&D Systems, 2474-TR or Acro Biosystems, CD1-H5243) (human, UniProt P02786 89-760). In words: FP competition, competitor BCY15768.
Assay [2] has as its target T1, Human TfR1 protein (R&D Systems, …). In words: FP competition, competitor BCY15768. This is another data set of the same source.
Assay [3] addresses T2, Recombinant human TfR1, His6-tagged (a.a. 89-760) (human, UniProt P02786 89-760).
T2 construct: range 89-760; captured and coupled on an NTA chip for SPR; also called transferrin receptor 1; CD71
As to the kind of experiment: SPR, TfR1 on chip. On the technique in general: SPR reads the build-up and loss of mass on a sensor chip optically.

The target of assay [4] is T3, Recombinant cynomolgus TfR1, His6-tagged (a.a. 89-760) (cynomolgus, UniProt H9EXL1 89-760 (rhesus entry)).
T3 construct: range 89-760; same product number named for FP and SPR; also called Cyno TfR1; Acro Biosystems TFR-C524a
As to the kind of experiment: SPR, TfR1 on chip.

Assay [5] concerns the target T3, Recombinant cynomolgus TfR1, …. As to the kind of experiment: FP competition table (Table 6).

In patent US20250340595A1 (published 2025) one finds Ki and Kd data, which are given here for 13 molecules.

Like-named read-outs stand apart in the source and are kept apart here. Starred links: 1 amine or outer side, 2 acyl side, 3 side chain; linkers in the order of their positions; H or OH if unused. Positions of bridges follow the written chain, without caps; N, C: chain ends. Non-standard residues stand in square brackets, D forms with d. No end group written: not given here. Fluorescein = fluorescein label on the C-terminal Lys side chain; TATB = O=C(C[*:1])N1CN(C(=O)C[*:2])CN(C(=O)C[*:3])C1; Sar = CNCC(=O)O

T2 sequence (P02786 89-760 limits assumed): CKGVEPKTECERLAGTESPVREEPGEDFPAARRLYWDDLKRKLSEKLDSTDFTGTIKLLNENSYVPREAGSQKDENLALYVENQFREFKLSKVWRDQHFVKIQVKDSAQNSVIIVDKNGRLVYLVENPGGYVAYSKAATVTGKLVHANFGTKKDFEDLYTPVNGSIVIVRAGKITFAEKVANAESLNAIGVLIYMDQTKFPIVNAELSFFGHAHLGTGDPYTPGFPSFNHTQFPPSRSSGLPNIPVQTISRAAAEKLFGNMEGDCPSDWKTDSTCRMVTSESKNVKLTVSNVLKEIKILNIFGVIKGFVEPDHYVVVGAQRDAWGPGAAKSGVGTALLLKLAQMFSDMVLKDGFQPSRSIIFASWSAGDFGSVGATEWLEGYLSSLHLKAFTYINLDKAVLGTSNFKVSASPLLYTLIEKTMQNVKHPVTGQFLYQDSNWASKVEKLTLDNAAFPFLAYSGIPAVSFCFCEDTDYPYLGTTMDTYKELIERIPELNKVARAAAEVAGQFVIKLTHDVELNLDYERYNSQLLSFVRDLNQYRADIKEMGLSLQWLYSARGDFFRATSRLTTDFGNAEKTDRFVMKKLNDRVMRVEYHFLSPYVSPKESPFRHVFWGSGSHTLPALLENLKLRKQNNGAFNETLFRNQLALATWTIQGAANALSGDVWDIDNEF
T1 sequence (P02786 89-760 limits assumed): as above
T3 sequence (chain, as listed by the source): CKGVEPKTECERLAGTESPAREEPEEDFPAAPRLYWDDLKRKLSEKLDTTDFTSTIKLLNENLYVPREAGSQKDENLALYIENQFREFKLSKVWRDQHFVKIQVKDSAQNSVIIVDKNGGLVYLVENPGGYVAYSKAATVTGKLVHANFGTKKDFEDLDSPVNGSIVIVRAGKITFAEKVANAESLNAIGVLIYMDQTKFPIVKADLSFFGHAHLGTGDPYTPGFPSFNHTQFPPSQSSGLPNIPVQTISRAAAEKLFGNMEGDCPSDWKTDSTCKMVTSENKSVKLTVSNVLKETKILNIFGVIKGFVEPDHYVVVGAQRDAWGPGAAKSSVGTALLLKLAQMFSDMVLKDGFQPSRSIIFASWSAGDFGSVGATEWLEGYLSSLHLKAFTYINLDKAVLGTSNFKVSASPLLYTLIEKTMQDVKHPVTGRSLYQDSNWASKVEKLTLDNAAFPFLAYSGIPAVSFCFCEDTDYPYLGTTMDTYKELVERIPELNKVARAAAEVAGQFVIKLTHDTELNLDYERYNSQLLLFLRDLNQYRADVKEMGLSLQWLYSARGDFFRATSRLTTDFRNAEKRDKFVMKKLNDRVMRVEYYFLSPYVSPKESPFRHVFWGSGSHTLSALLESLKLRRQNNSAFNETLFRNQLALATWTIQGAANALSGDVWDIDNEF

As for ESFCSPDAHLGCISYCA (linker 4-12-16 via TATB) [BCY17113], the inhibitory constant (Ki) in assay [1] and in assay [2] was 103 nM in each case. For the same molecule, the Kd – broadly, a measure of binding affinity in units of concentration – in assay [3] came out at 308 nM; in assay [4], 1660 nM.

For WGKSCPIDAHLGCISYCA (linker 5-13-17 via TATB (inferred)) [BCY17116], the Ki in assay [1] and in assay [2] was 75 nM throughout. The Kd in assay [3] was 1 nM; in assay [4], 474 nM.

In the case of HTSCSPDAHLGCISYCA (linker 4-12-16 via TATB) [BCY17111], the inhibition constant (Ki) in assay [1] and in assay [2] was 86 nM each time. The Kd in assay [3] was 8.3 nM; in assay [4], 907 nM.

Turning to ACAPDAHLGCISYCA[Sar][Sar][Sar][Sar][Sar][Sar]K(Fluorescein) (linker 2-10-14 via TATB) [BCY15769], the Ki (as a rule, a measure of affinity in units of concentration, obtained from inhibition or displacement) in assay [5] worked out at 1120 nM. For the same molecule, the Kd in assay [3] stood at 70 nM; in assay [4], 2200 nM.

On to ACSPAAHLGCISYCA[Sar][Sar][Sar][Sar][Sar][Sar]K(Fluorescein) (linker 2-10-14 via TATB) [BCY15772], for which the Ki in assay [5] is 7080 nM. Further, the Kd in assay [4] was 99000 nM.

Turning to ACSPDAHLGCISACA[Sar][Sar][Sar][Sar][Sar][Sar]K(Fluorescein) (linker 2-10-14 via TATB) [BCY15770], in assay [5], the Ki is 4040 nM.

Regarding ACSPDAHLGCIAYCA[Sar][Sar][Sar][Sar][Sar][Sar]K(Fluorescein) (linker 2-10-14 via TATB) [BCY15777], in assay [5], the Ki turned out to be 2910 nM.

For ACSPDAHAGCISYCAXXXXXXK (3 Cys on TATB; [Sar6]; C-terminal Lys carries fluorescein) [BCY15774], the Ki in assay [5] came out at 3470 nM. Further, the Kd in assay [4] was determined as 41000 nM.

With ACSPDAALGCISYCA[Sar][Sar][Sar][Sar][Sar][Sar]K(Fluorescein) (linker 2-10-14 via TATB) [BCY15773], the Ki in assay [5] stood at 2300 nM. The Kd in assay [4] came out at 2600 nM.

Turning to ACSADAHLGCISYCA[Sar][Sar][Sar][Sar][Sar][Sar]K(Fluorescein) (linker 2-10-14 via TATB) [BCY15771], in assay [5], the Ki was 1060 nM. Further, the Kd in assay [4] amounted to 4000 nM.

As to IDSNCPNDAHLGCISYCA (linker 5-13-17 via TATB (inferred)) [BCY17118], the Ki in assay [1] and in assay [2] was 70 nM each time. The results for the Kd in assay [3] and in assay [4] were 120 nM and 1960 nM, respectively.

As for ACSPDAHLGCISYCEHQE (linker 2-10-14 via TATB (inferred)) [BCY17119], the Ki in assay [1] and in assay [2] was 160 nM each time. The dissociation constant Kd in assay [3] is 212 nM; in assay [4], 5650 nM.

For TYMNCPPDAHLGCISYCA (linker 5-13-17 via TATB (inferred)) [BCY17117], the Ki in assay [1] and in assay [2] was 37 nM each time. The Kd was 4.2 nM in assay [3] and 805 nM in assay [4].
